Reference: US20210388110A1 (published 2021)

Molecular target: T1, soluble human CD3ε chain (human, UniProt P07766 23-126, limits assumed)
T1 construct: the text says soluble human CD3ε chain; also called human CD3 epsilon chain
Assay: SPR (Biacore)

T1 sequence (P07766 23-126 limits assumed): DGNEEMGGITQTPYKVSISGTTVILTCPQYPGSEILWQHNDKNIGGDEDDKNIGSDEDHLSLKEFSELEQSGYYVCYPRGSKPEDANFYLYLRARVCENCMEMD

Kd	Binder
65.4 nM	TR01H030-E22Hh/none-Hi-Kn010G3/L0000-k0 (antibody, human IgG1, kappa, L234A L235A, N297A, single-arm) heavy: QVQLVESGGGVVQPGRSLRLSCAASGFTFSNAWMHWVRQAPGKGLEWVAQIKGKSNNYATYYAESVKGRFTISRADSKNSIYLQMNSLKTEDTAVYYCRYVHYSASYGVDIWGQGTTVTVSSASTKGPSVFPLAPSSKSTSGGTAALGCLVKDYFPEPVTVSWNSGALTSGVHTFPAVLQSSGLYSLSSVVTVPSSSLGTQTYICNVNHKPSNTKVDKKVEPKSCDKTHTCPPCPAPEAAGGPSVFLFPPKPKDTLMISRTPEVTCVVVDVSHEDPEVKFNWYVDGVEVHNAKTKPREEQYASTYRVVSVLTVLHQDWLNGKEYKCKVSNKALPAPIEKTISKAKGQPREPQVYTLPPSRCELTKNQVSLSCAVKGFYPSDIAVEWESNGQPENNYKTTPPVLDSDGSFFLVSKLTVDKSRWQQGNVFSCSVMHEALHNHYTQKSLSLSPDYKDDDDK EPKSSDKTHTCPPCPAPELLGGPSVFLFPPKPKDTLMISRTPEVTCVVVDVSHEDPEVKFNWYVDGVEVHNAKTKPREEQYNSTYRVVSVLTVLHQDWLNGKEYKCKVSNKALPAPIEKTISKAKGQPREPQVCTLPPSRDELTKNQVSLWCLVKGFYPSDIAVEWESNGQPENNYKTTPPVLDSDGSFFLYSKLTVDKSRWQQGNVFSCSVMHEALHNRYTQKSLSLSP light: DIVMTQSPLSLPVTPGEPASISCRSSQSLVHSNRNTYLHWYQQKPGQAPRLLIYKVSNRFSGVPDRFSGSGSGTDFTLKISRVEAEDVGVYYCGQGTQVPYTFGQGTKLEIKRTVAAPSVFIFPPSDEQLKSGTASVVCLLNNFYPREAKVQWKVDNALQSGNSQESVTEQDSKDSTYSLSSTLTLSKADYEKHKVYACEVTHQGLSSPVTKSFNRGEC
65 nM	TR01H036-E22Hh/none-Hi-Kn010G3/L0000-k0 (antibody, human IgG1, kappa, L234A L235A, N297A, single-arm) heavy: QVQLVESGGGLVQPGRSLRLSCAASGFTFSNAWMHWVRQAPGKGLEWVAQIKGKSNNYATYYAESVKGRFTISRADSKNSIYLQMNSLKTEDTAVYYCRYVHYSASYGVDYWGQGTTVTVSSASTKGPSVFPLAPSSKSTSGGTAALGCLVKDYFPEPVTVSWNSGALTSGVHTFPAVLQSSGLYSLSSVVTVPSSSLGTQTYICNVNHKPSNTKVDKKVEPKSCDKTHTCPPCPAPEAAGGPSVFLFPPKPKDTLMISRTPEVTCVVVDVSHEDPEVKFNWYVDGVEVHNAKTKPREEQYASTYRVVSVLTVLHQDWLNGKEYKCKVSNKALPAPIEKTISKAKGQPREPQVYTLPPSRCELTKNQVSLSCAVKGFYPSDIAVEWESNGQPENNYKTTPPVLDSDGSFFLVSKLTVDKSRWQQGNVFSCSVMHEALHNHYTQKSLSLSPDYKDDDDK EPKSSDKTHTCPPCPAPELLGGPSVFLFPPKPKDTLMISRTPEVTCVVVDVSHEDPEVKFNWYVDGVEVHNAKTKPREEQYNSTYRVVSVLTVLHQDWLNGKEYKCKVSNKALPAPIEKTISKAKGQPREPQVCTLPPSRDELTKNQVSLWCLVKGFYPSDIAVEWESNGQPENNYKTTPPVLDSDGSFFLYSKLTVDKSRWQQGNVFSCSVMHEALHNRYTQKSLSLSP light: DIVMTQSPLSLPVTPGEPASISCRSSQSLVHSNRNTYLHWYQQKPGQAPRLLIYKVSNRFSGVPDRFSGSGSGTDFTLKISRVEAEDVGVYYCGQGTQVPYTFGQGTKLEIKRTVAAPSVFIFPPSDEQLKSGTASVVCLLNNFYPREAKVQWKVDNALQSGNSQESVTEQDSKDSTYSLSSTLTLSKADYEKHKVYACEVTHQGLSSPVTKSFNRGEC
57.3 nM	TR01H032-E22Hh/none-Hi-Kn010G3/L0000-k0 (antibody, human IgG1, kappa, L234A L235A, N297A, single-arm) heavy: QVQLVESGGGLVQPGRSLRLSCAASGFTFSNAWMHWVRQAPGKGLEWVAQIKSKSQNYATYYAESVKGRFTISRADSKNSIYLQMNSLKTEDTAVYYCRYVHYSASYGVDAWGQGTTVTVSSASTKGPSVFPLAPSSKSTSGGTAALGCLVKDYFPEPVTVSWNSGALTSGVHTFPAVLQSSGLYSLSSVVTVPSSSLGTQTYICNVNHKPSNTKVDKKVEPKSCDKTHTCPPCPAPEAAGGPSVFLFPPKPKDTLMISRTPEVTCVVVDVSHEDPEVKFNWYVDGVEVHNAKTKPREEQYASTYRVVSVLTVLHQDWLNGKEYKCKVSNKALPAPIEKTISKAKGQPREPQVYTLPPSRCELTKNQVSLSCAVKGFYPSDIAVEWESNGQPENNYKTTPPVLDSDGSFFLVSKLTVDKSRWQQGNVFSCSVMHEALHNHYTQKSLSLSPDYKDDDDK EPKSSDKTHTCPPCPAPELLGGPSVFLFPPKPKDTLMISRTPEVTCVVVDVSHEDPEVKFNWYVDGVEVHNAKTKPREEQYNSTYRVVSVLTVLHQDWLNGKEYKCKVSNKALPAPIEKTISKAKGQPREPQVCTLPPSRDELTKNQVSLWCLVKGFYPSDIAVEWESNGQPENNYKTTPPVLDSDGSFFLYSKLTVDKSRWQQGNVFSCSVMHEALHNRYTQKSLSLSP light: DIVMTQSPLSLPVTPGEPASISCRSSQSLVHSNRNTYLHWYQQKPGQAPRLLIYKVSNRFSGVPDRFSGSGSGTDFTLKISRVEAEDVGVYYCGQGTQVPYTFGQGTKLEIKRTVAAPSVFIFPPSDEQLKSGTASVVCLLNNFYPREAKVQWKVDNALQSGNSQESVTEQDSKDSTYSLSSTLTLSKADYEKHKVYACEVTHQGLSSPVTKSFNRGEC
12.4 nM	TR01H038-E22Hh/none-Hi-Kn010G3/L0000-k0 (antibody, human IgG1, kappa, L234A L235A, N297A, single-arm) heavy: QVQLVESGGGLVQPGRSLRLSCAASGFTFSNAWMHWVRQAPGKGLEWVAQIKDKSNNYATYYAESVKGRFTISRADSKNSIYLQMNSLKTEDTAVYYCRYVHYSASYGVDIWGQGTTVTVSSASTKGPSVFPLAPSSKSTSGGTAALGCLVKDYFPEPVTVSWNSGALTSGVHTFPAVLQSSGLYSLSSVVTVPSSSLGTQTYICNVNHKPSNTKVDKKVEPKSCDKTHTCPPCPAPEAAGGPSVFLFPPKPKDTLMISRTPEVTCVVVDVSHEDPEVKFNWYVDGVEVHNAKTKPREEQYASTYRVVSVLTVLHQDWLNGKEYKCKVSNKALPAPIEKTISKAKGQPREPQVYTLPPSRCELTKNQVSLSCAVKGFYPSDIAVEWESNGQPENNYKTTPPVLDSDGSFFLVSKLTVDKSRWQQGNVFSCSVMHEALHNHYTQKSLSLSPDYKDDDDK EPKSSDKTHTCPPCPAPELLGGPSVFLFPPKPKDTLMISRTPEVTCVVVDVSHEDPEVKFNWYVDGVEVHNAKTKPREEQYNSTYRVVSVLTVLHQDWLNGKEYKCKVSNKALPAPIEKTISKAKGQPREPQVCTLPPSRDELTKNQVSLWCLVKGFYPSDIAVEWESNGQPENNYKTTPPVLDSDGSFFLYSKLTVDKSRWQQGNVFSCSVMHEALHNRYTQKSLSLSP light: DIVMTQSPLSLPVTPGEPASISCRSSQSLVHSNRNTYLHWYQQKPGQAPRLLIYKVSNRFSGVPDRFSGSGSGTDFTLKISRVEAEDVGVYYCGQGTQVPYTFGQGTKLEIKRTVAAPSVFIFPPSDEQLKSGTASVVCLLNNFYPREAKVQWKVDNALQSGNSQESVTEQDSKDSTYSLSSTLTLSKADYEKHKVYACEVTHQGLSSPVTKSFNRGEC
6.93 nM	TR01H037-E22Hh/none-Hi-Kn010G3/L0000-k0 (antibody, human IgG1, kappa, L234A L235A, N297A, single-arm) heavy: QVQLVESGGGLVQPGRSLRLSCAASGFTFSNAWMPWVRQAPGKGLEWVAQIKGKSNNYATYYAESVKGRFTISRADSKNSIYLQMNSLKTEDTAVYYCRYVHYSASYGVDIWGQGTTVTVSSASTKGPSVFPLAPSSKSTSGGTAALGCLVKDYFPEPVTVSWNSGALTSGVHTFPAVLQSSGLYSLSSVVTVPSSSLGTQTYICNVNHKPSNTKVDKKVEPKSCDKTHTCPPCPAPEAAGGPSVFLFPPKPKDTLMISRTPEVTCVVVDVSHEDPEVKFNWYVDGVEVHNAKTKPREEQYASTYRVVSVLTVLHQDWLNGKEYKCKVSNKALPAPIEKTISKAKGQPREPQVYTLPPSRCELTKNQVSLSCAVKGFYPSDIAVEWESNGQPENNYKTTPPVLDSDGSFFLVSKLTVDKSRWQQGNVFSCSVMHEALHNHYTQKSLSLSPDYKDDDDK EPKSSDKTHTCPPCPAPELLGGPSVFLFPPKPKDTLMISRTPEVTCVVVDVSHEDPEVKFNWYVDGVEVHNAKTKPREEQYNSTYRVVSVLTVLHQDWLNGKEYKCKVSNKALPAPIEKTISKAKGQPREPQVCTLPPSRDELTKNQVSLWCLVKGFYPSDIAVEWESNGQPENNYKTTPPVLDSDGSFFLYSKLTVDKSRWQQGNVFSCSVMHEALHNRYTQKSLSLSP light: DIVMTQSPLSLPVTPGEPASISCRSSQSLVHSNRNTYLHWYQQKPGQAPRLLIYKVSNRFSGVPDRFSGSGSGTDFTLKISRVEAEDVGVYYCGQGTQVPYTFGQGTKLEIKRTVAAPSVFIFPPSDEQLKSGTASVVCLLNNFYPREAKVQWKVDNALQSGNSQESVTEQDSKDSTYSLSSTLTLSKADYEKHKVYACEVTHQGLSSPVTKSFNRGEC
48.8 nM	TR01H033-E22Hh/none-Hi-Kn010G3/L0000-k0 (antibody, human IgG1, kappa, L234A L235A, N297A, single-arm) heavy: QVQLVESGGGLVQPGRSLRLSCAASGFTFSNAWMHWVRQAPGKGLEWVAQIKSKSQNYATYYAESVKGRFTISRADSKNSIYLQMNSLKTEDTAVYYCRYVHYSASYGVDYWGQGTTVTVSSASTKGPSVFPLAPSSKSTSGGTAALGCLVKDYFPEPVTVSWNSGALTSGVHTFPAVLQSSGLYSLSSVVTVPSSSLGTQTYICNVNHKPSNTKVDKKVEPKSCDKTHTCPPCPAPEAAGGPSVFLFPPKPKDTLMISRTPEVTCVVVDVSHEDPEVKFNWYVDGVEVHNAKTKPREEQYASTYRVVSVLTVLHQDWLNGKEYKCKVSNKALPAPIEKTISKAKGQPREPQVYTLPPSRCELTKNQVSLSCAVKGFYPSDIAVEWESNGQPENNYKTTPPVLDSDGSFFLVSKLTVDKSRWQQGNVFSCSVMHEALHNHYTQKSLSLSPDYKDDDDK EPKSSDKTHTCPPCPAPELLGGPSVFLFPPKPKDTLMISRTPEVTCVVVDVSHEDPEVKFNWYVDGVEVHNAKTKPREEQYNSTYRVVSVLTVLHQDWLNGKEYKCKVSNKALPAPIEKTISKAKGQPREPQVCTLPPSRDELTKNQVSLWCLVKGFYPSDIAVEWESNGQPENNYKTTPPVLDSDGSFFLYSKLTVDKSRWQQGNVFSCSVMHEALHNRYTQKSLSLSP light: DIVMTQSPLSLPVTPGEPASISCRSSQSLVHSNRNTYLHWYQQKPGQAPRLLIYKVSNRFSGVPDRFSGSGSGTDFTLKISRVEAEDVGVYYCGQGTQVPYTFGQGTKLEIKRTVAAPSVFIFPPSDEQLKSGTASVVCLLNNFYPREAKVQWKVDNALQSGNSQESVTEQDSKDSTYSLSSTLTLSKADYEKHKVYACEVTHQGLSSPVTKSFNRGEC
